Biological target: DNA polymerase β polymerase domain with the V303M mutation (UniProt P06766 88-335, V303M, [methyl-13C]methionine labelled)
Test: NMR

- ratio KD(pol β•X1NTDred)/KD(pol β•X1NTDox): 25.2
B1: oxidized form of the XRCC1 N-terminal domain, XRCC1(1-155), containing the C12-C20 disulfide bond (domain or fragment, human, UniProt P18887 2-155, looked up)
chain: PEIRLRHVVSCSSQDSTHCAENLLKADTYRKWRAAKAGEKTISVVLQLEKEEQIHSVDIGNDGSAFVEVLVGSSAGGAGEQDYEVLLVTSSFMSPSESRSGSNPNRVRMFGPDKLVRAAAEKRWDRVKIVCSQPYSKDSPFGLSFVRFHSPPDK
modifications: Cys12-Cys20 disulfide bond; N-terminal carbimate (CO2) adduct on Pro2; U-[15N] labelled

— PMC5588702 (Structure (London, England : 1993), 2014)
